Where no end group is shown, it is not given here.
Experiments:
[1] = target: Serum IgG autoantibodies of subjects with type 1 diabetes (human); experiment: competitive ELISA, T1D serum pre-incubated with peptide, plate coated with oxidised insulin (Example 3)
[2] = target: Serum IgG autoantibodies of subjects with type 1 diabetes (human); experiment: competitive ELISA, T1D serum pre-incubated with peptide, plate coated with oxidised insulin (FIG. 2B)

- % reduction of serum binding to oxidised whole insulin [1]: 35 to 70%
- % reduction of serum binding to oxidised whole insulin [2]: 35 to 75%
B1: oxPTM-INSP-6, peptide 6 oxidised in house (oxidant not specified at the place) (peptide)
peptide: ERGFFYTPKT
modifications: not fully specified (N-terminus); also: oxidised in house (CuCl2, H2O2, NaOCl), modified residues not defined
